Results on one molecule are retold here after patent US20260043816A1 (AC IMMUNE, published 2026).

For test [1], the target named is T1, recombinant full length TDP-43 (SEQ ID NO: 1, FL TDP-43) (human, UniProt Q13148 1-414).
T1 construct: also called recombinant human soluble FL TDP-43; soluble human TDP-43
Nature of the test: pairing sandwich ELISA, antibody coated as capture, FL TDP-43 titrated. The procedure:
The capacity of antibodies to bind phospho TDP-43 and TDP-43 was determined using a sandwich enzyme-linked immunosorbent assay (ELISA), where each antibody was paired with a second TDP-43 antibody previously characterized for TDP-43 binding and performance in sandwich immunoassays, ACI-7071-809F12-Ab1-rec2 (as described in WO2020234473) or ACI-7069-636E5-Ab1 (as described in WO2020234473). ELISA plates (Nunc™ Edge™ 96-Well, Non-Treated, Flat-Bottom Microplate, ThermoFisher Scientific, Denmark) were coated with 5 μg/mL of anti-phospho TDP-43 or anti-TDP-43 antibodies in carbo/bicarbonate buffer, overnight at 4° C. Plates were then washed with 0.05% Tween-20/PBS and blocked with 1% bovine serum albumin (BSA) in 0.05% Tween-20/PBS for 1 hour at 37° C. The plates were then washed again as described above.
Serial-dilutions of target peptide or protein were then added to the plates. For assays with anti-phospho TDP-43 antibodies, one of four peptide conjugates (peptides 11, 23, 28, or 29) each composed of two TDP-43 sequences, one phosphorylated and one non-phosphorylated, conjugated together with a Trioxatridecan-succinamic acid linker (Ttds, binding regions and sequences shown in Table 4) were used. Peptides 11, 23, 28, and 29 were added in a 10-fold serial dilution starting at 0.5 μM. For assays with TDP-43 antibodies only, recombinant full length TDP-43 (SEQ ID NO: 1, FL TDP-43) was diluted 3-fold from 21.9 pM. Plates were incubated for 1 hour at 37° C., and then washed. […] PEG-biotinylated phospho TDP-43 or TDP-43 antibodies were then respectively added to the wells and incubated for 1 hour at 37° C., after which the plates were washed. Horseradish peroxidase (HRP)-conjugated streptavidin (R&D Systems, Switzerland) was added at 1/200 dilution in 1% BSA and 0.05% Tween-20/PBS for 45 min at room temperature. […] The plate was read at 450 nm using an ELISA plate reader (Tecan, Switzerland).
Background: An ELISA detects its analyte on a solid surface through an enzyme-linked reagent.

Test [2] deals with T2, Peptide 28 (human, phosphoserine at pS403 and pS404 (human TDP-43 numbering, in the SEQ ID NO: 8 part); Trioxatridecan-succinamic acid (Ttds) linker between SEQ ID NO: 7 and SEQ ID NO: 8).
T2 peptide: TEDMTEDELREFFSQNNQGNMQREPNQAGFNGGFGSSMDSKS
Briefly: SPR Biacore 8K, antibody captured, peptide analyte, single-cycle kinetics, 1:1 fit. How it is done: (§1) Each cycle started with the non-covalent capture of the antibody which were diluted in running buffer to a final concentration of 5 μg/mL and injected for 120 sec with a flow rate of 10 μL/min. Antibodies being measured were captured in channels […], leaving Fc 1 as a blank Fc. Capture levels were evaluated following a 120 sec stabilization period after each antibody injection. ACI-7071-809F12-Ab1-rec2 was used as control, binding to the non-phosphorylated sequences represented in peptides 28 and 29.
(§2) Injections of peptides 28 or 29 were performed using single-cycle kinetics with increasing concentrations ranging from 1.2 to 100 nM prepared as a 3-fold serial dilution. Injections were performed with contact times of 300 sec/injection at a flow rate of 30 μL/min. A dissociation phase of 900 sec followed the final injection. Sensor surface was regenerated by two injection of 10 mM Glycine-HCl pH 1.7 at a flow rate of 10 μL/min for 60 sec, followed by a stabilization period of 120 sec. Results obtained from single-cycle kinetics were double-referenced using the blank Fc 1 and buffer cycles and evaluated by Biacore 8K evaluation software (Cytiva). The following kinetic parameters were obtained using the 1:1 binding fit model with variable Reflective Index (RI): association rate constant (ka), dissociation rate constant (kd), affinity constant (KD) and saturation response (Rmax).

Test [3] concerns the target T3, Peptide 29 (human, phosphoserine at pS409 and pS410 (human TDP-43 numbering, in the SEQ ID NO: 9 part); Trioxatridecan-succinamic acid (Ttds) linker between SEQ ID NO: 7 and SEQ ID NO: 9).
T3 peptide: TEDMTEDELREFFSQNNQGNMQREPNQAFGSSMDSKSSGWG
The description is as above. The procedure: as §1, §2

In test [4] the target is T4, TDP-43 peptide consisting of amino acid sequence (SEQ ID NO: 5) (comprising pS375 and pS379) (human).
T4 construct: also called target peptide
T4 peptide: GNNSY[pS]GSN[pS]GAAIG
Briefly: SPR, antibody on chip, peptide analyte. The procedure:
For antibodies ACI-8070-942.30D12-Ab1 and ACI-7071-809F12-Ab1-rec2 affinity was measured on Biacore 5200 instrument (Cytiva, Switzerland). The instrument was primed with running buffer HBS-P+ (10× HBS-P+ diluted to 1× in Milli-Q water) and flow-cells (Fc) 1-4 of a CM7 Series S sensor chip (Cytiva, 29147020) were activated with a fresh solution of EDC/NHS (Amine Coupling Kit type 2, BR100633, Cytiva) 1:1 ratio of both reagents at 10 μL/min for 420 sec and polyclonal rabbit anti-mouse IgG antibody (Cytiva, 29215281) was immobilized at […] in 10 mM sodium acetate pH 5.0 for 420 sec. Next, all Fc were quenched with 1 M ethanolamine (Cytiva, BR100633) for 420 sec. Immobilization levels were evaluated following ethanolamine quenching. A mouse IgG2a isotype control antibody and ACI-8070-942.30D12-Ab1 were captured on Fc 1 and Fc 2, respectively. Antibodies were diluted in 10 mM sodium acetate pH5.5 to a final concentration of 50 μg/mL and injected using the aim immobilization level functionality with a target of 10000 RU. […] Results obtained from single-cycle kinetics were double-referenced using the blank Fc 1 and buffer cycles and evaluated using the Biacore Insight Evaluation software (Cytiva). […]

As usually defined, the EC50 is the concentration that produces a half-maximal response. One may read the Kd as the concentration at which binding is half-saturated. A low value points to tighter binding. Usually koff stands for a measure of how fast the partners let go of each other. High values mean fast dissociation, low ones slow dissociation. The term kon denotes a measure of how fast the partners come together.

Square brackets hold non-standard residues; d marks the D form. Ends that are not written are not given here. pS = N[C@@H](COP(=O)(O)O)C(=O)O

B1: ACI-7071-809F12-Ab1-rec2 (as described in WO2020234473) (antibody, V domains shown)
VH: QVQLKESGPGLVAPSQSLSITCTVSGFSLNRNGVQWVRQPPGKGLEWLGVIWPGGSTNCNSALMSRLSISKDNSKSQVFLKMNSLHTDDTGIYYCARVGGNYVWDYNNYAWGQGTLVTVSA
VL: DVLMTQTPLSLPVSLGDQASISCRSSQNIVHSIGNTYLEWYLQKPGQSPKLLIYKVSNRFSGVPDRFSGSGSGTDFTLKISRVEAEDLGVYYCFQGSHVPYTFGGGTKLEIR
notes: also called 809F12D8
As for B1, in test [1], the EC50 is 0.181 nM. In test [2], this molecule came in with a Kd of 4.5 nM, a dissociation rate constant (koff) of 0.00231 s⁻¹ and a kon of 514000 M⁻¹ s⁻¹. Moreover, in test [3], the Kd stood at 7 nM, the koff was found to be 0.00343 s⁻¹ and the on-rate constant (kon) stood at 490000 M⁻¹ s⁻¹. Moreover, in test [4], the binding result was “no binding”.
